# According to patent US20250361297A1 (ADAPTAM THERAPEUTICS S L, published 2025):
# T1: human Siglec-15, full length, expressed on cells (human, UniProt Q6ZMC9 20-328)
# T1 construct: also called hS15; MOLM-13 Siglec-15 expressing cells
# T1 sequence: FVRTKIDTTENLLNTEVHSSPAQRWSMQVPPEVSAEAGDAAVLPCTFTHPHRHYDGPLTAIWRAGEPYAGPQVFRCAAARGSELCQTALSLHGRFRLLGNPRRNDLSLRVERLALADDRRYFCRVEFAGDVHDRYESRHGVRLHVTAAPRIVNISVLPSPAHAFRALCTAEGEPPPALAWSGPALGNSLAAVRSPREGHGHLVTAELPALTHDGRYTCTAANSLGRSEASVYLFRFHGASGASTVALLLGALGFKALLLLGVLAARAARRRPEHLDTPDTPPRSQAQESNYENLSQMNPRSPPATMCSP
# T2: truncated human Siglec-15 comprising only domain 2 (D2), expressed on HEK293T cells (human, UniProt Q6ZMC9 168-251, limits assumed)
# T2 construct: also called domain 2-only human Siglec-15; Siglec-15 Domain 2 (D2) HEK293T cells
# T2 sequence: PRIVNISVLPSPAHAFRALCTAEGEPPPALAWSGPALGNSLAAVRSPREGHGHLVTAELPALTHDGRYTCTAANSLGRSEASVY
# T3: mouse Siglec-15, full length, expressed on HEK293T cells (mouse)
# T3 construct: also called mS15; HEK293T cells expressing mouse Siglec-15
# T3 chain: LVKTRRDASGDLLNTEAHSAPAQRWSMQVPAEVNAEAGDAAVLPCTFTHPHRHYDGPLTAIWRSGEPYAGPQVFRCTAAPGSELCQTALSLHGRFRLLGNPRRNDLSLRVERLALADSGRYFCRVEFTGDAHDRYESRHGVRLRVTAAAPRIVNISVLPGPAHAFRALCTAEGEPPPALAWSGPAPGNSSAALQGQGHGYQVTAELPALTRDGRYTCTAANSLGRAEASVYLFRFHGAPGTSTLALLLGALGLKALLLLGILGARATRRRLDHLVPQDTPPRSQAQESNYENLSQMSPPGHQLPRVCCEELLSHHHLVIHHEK
# B1: ZLA-1214-H05 (antibody, V domains shown)
# VH: QVQLVQSGAEVKKPGASVKVSCKASGYTFTSYGISWVRQAPGQGLEWMGWISAYNGNTNYAQKLQGRVTMTTDTSTSTAYMELRSLRSDDTAVYYCARMSGYYGMDVWGQGTLVTVSS
# VL: DIQLTQSPSSLSASVGDRVTITCQASQGISNYLNWYQQKPGKAPKLLIYDASNLETGVPSRFSGSGSGTDFTFTISSLQPEDIATYYCQQYDNLPLTFGGGTKLEIK
# notes: Fully human, from phage display
# Experiments:
# [1] = target: T1, human Siglec-15, full length, expressed …; experiment: IgG1 titration, flow cytometry on MOLM-13 human Siglec-15 cells
# Experimental: Complementary to the ELISA, flow cytometry assays provided insight into the binding behavior of the antibodies on the cell surface. Here, titration of the antibodies began at the same concentration of 10 μg/ml, using MOLM-13 human Siglec-15 and MOLM-13 wild-type cells as a negative control, with detection performed using an anti-human Fc secondary antibody (FIG. 8B).
# In the flow cytometry assay, MOLM-13 cells expressing human Siglec-15 and MOLM-13 wild-type cells (negative control) were incubated with titrated antibodies starting at 10 μg/ml. After incubation, cells were washed and incubated with an anti-human Fc-specific secondary antibody conjugated with a fluorescent marker. Flow cytometric analysis was conducted, and fluorescence intensity was used to calculate EC50 values, providing a quantitative assessment of the antibodies' cell surface binding efficacy.
# [2] = target: T2, truncated human Siglec-15 comprising …; experiment: flow cytometry on HEK293T cells expressing domain 2 only (FIG. 16)
# [3] = target: T3, mouse Siglec-15, full length, expressed …; experiment: IgG1 titration, flow cytometry on HEK293T cells expressing mouse Siglec-15
# Experimental: The antibodies were titrated against HEK293T cells expressing mouse Siglec-15 or HEK293T cells expressing a truncated human Siglec-15 consisting solely of domain 2 (FIG. 9).
# For the ELISA, antigens were immobilized on high-binding plates, and the full-length IgG1 anti-Siglec-15 antibodies were titrated beginning at a concentration of 10 μg/ml. After washing, an anti-human IgG Fab-specific HRP-conjugated secondary antibody was applied for detection. Palivizumab was included as the negative control. Optical densities were measured to generate binding curves from which EC50 values were derived. In the flow cytometry assay, MOLM-13 cells expressing human Siglec-15 and MOLM-13 wild-type cells (negative control) were incubated with titrated antibodies starting at 10 μg/ml. After incubation, cells were washed and incubated with an anti-human Fc-specific secondary antibody conjugated with a fluorescent marker. Flow cytometric analysis was conducted, and fluorescence intensity was used to calculate EC50 values, providing a quantitative assessment of the antibodies' cell surface binding efficacy. HEK293T cells were genetically engineered to express full-length mouse Siglec-15 and a truncated version of human Siglec-15 encompassing only domain 2. Antibodies were titrated starting at a concentration of 10 μg/ml and detected with an anti-human Fc-specific secondary antibody to detect bound primary antibodies. […] Results were analyzed and ranked based on the EC50 values.
binder,measurement,setting,value
B1,EC50,[1],0.593 µg/mL
same,binding result,[2],no binding
same,EC50,[3],0.561 µg/mL
